{
  "source": "patent US20210162028A1",
  "about": "“Methods for Inducing Intermittent Fasting and Modulating Autophagy” (The Hong Kong Polytechnic University, priority 2019, published 2021)",
  "key": {"[1]": {"test": "Bodyweight of treated mice", "type": "in vivo, mouse"}, "[2]": {"test": "Daily food intake / 7-day intermittent fasting cycle in mice", "type": "in vivo, mouse", "description": "One of the most noticeable effects of intermittent fasting is reduction of bodyweight. […] Specifically, C57BL/6J, which is the most commonly used mouse strain for polygenic obesity model, was used in the study. It is well-reported that C57BL/6J male mice feeding on a high-fat diet will have prominent weight gain, become obese and develop hyperinsulinemia, hyperglycemia, impaired glucose tolerance and insulin resistance [Gallou-Kabani et al., 2007, Obesity 15(8):1996-2005]. Obesity was induced in C57BL/6J male mice via feeding ad libitum a high-fat diet containing 60 kcal % fat (HFD; Research Diets, D12492) for 12-14 weeks starting from 5-week old. These mice are referred as diet-induced obese (DIO) mice. DIO mice were stratified according to bodyweight into 2 groups. […] Both groups of mice continued to feed ad libitum on the HFD throughout the treatment period. One group of age-matched C57BL/6J male mice feeding ad libitum on an ordinary rodent chow diet (CD; LabDiet, 50IF/6F) and injected with vehicle served as the lean control [CD (vehicle) group]. Food intake and bodyweight of mice were measured daily. […] DIO mice were injected with rhArg on Day 0, which was Day 7 of the previous cycle. Similarly, Day 7 of the cycle shown in FIG. 1B was Day 0 of the next cycle. […] Bodyweight gain is one of the biomarkers related to aging.\nC57BL/6J male mice were fed a high-fat diet from 5-week old for 12 weeks. They were then stratified into 3 groups according to their bodyweight and individually caged: (i) one group of mice received i.p. injection of 600 U N-ABD094-rhArg (SEQ ID NO: 50) once a week [HFD (rhArg) group] and was fed ad libitum the HFD for 5 weeks; (ii) one group of mice received i.p. injection of saline once a week, and was fed a predetermined amount of HFD on each day to artificially create a 7-day intermittent fasting cycle that mimics the pattern of food intake of mice administered once a week with rhArg [HFD (artificial IF) group)]; (iii) one group of mice was injected with saline once a week and was fed ad libitum the HFD [HFD (vehicle) group]."}, "[3]": {"test": "Half-life / therapeutic duration in circulation", "parameters": "species or system mice", "conditions": "mouse, in vivo", "description": "As used herein, the term “half-life” or “½-life” refers to the time that would be required for the concentration of an agent, e.g., a fusion protein or arginine depleting agent as described herein, to fall by half in vitro or in vivo, for example, after injection into a mammal. In certain instances, the concentration of plasma arginine, after injection, is used herein as a proxy indicator of the half-life of the agent. In such instances, the term “therapeutic duration” is used to refer to the length of time a specified dosage of the arginine depleting agent is able to maintain the plasma concentration of arginine below a specified threshold concentration that a desired therapeutic effect is observed. In certain embodiments, the threshold concentration of plasma arginine is below 50 μM, below 40 μM, below 30 μM, below 20 μM, below 10 μM, below 5 μM, below 3 μM, or at a concentration below the detection limit of conventional analytical instrumentation.\nImportantly, the present invention used a new ABD fusion approach to join an ABD and an arginase together so that arginase activity can be retained. Stable and soluble arginase-ABD fusion molecules that can bind to FcRn in a pH-dependent manner were successfully generated, allowing for efficient endosomal recycling. […] Taken together, a variety of different approaches are available for fine-tuning the pharmacokinetic properties of arginases, ensuring appropriate residence time in circulation for different disease conditions. Another key issue in the development of any therapeutic protein is to minimize immunogenicity to avoid adverse effects. Thus, the observed low immunogenicity of human arginase and the successful deimmunization of ABD (e.g. ABD094), which was also used in the present disclosure as gene fusion partner to extend the in vivo half-life, are important."}, "[4]": {"test": "Insulin tolerance test (ITT)", "type": "in vivo, mouse", "conditions": "DIO C57BL/6J male mice on HFD; about 250 U once a week; at 7 week", "description": "In terms of reversing insulin resistance on pre-existing obese mice, insulin tolerance test (ITT) was employed (FIG. 59).\nIn terms of reversing insulin resistance on pre-existing obese mice, insulin tolerance test (ITT) was employed (FIG. 68A)."}, "[5]": {"test": "Glucose tolerance test (GTT)", "type": "in vivo, mouse", "conditions": "DIO C57BL/6J male mice on HFD; about 250 U once a week; at 6 week"}, "[6]": {"test": "Fat pad and organ mass at end of treatment", "type": "in vivo, mouse", "conditions": "DIO C57BL/6J male mice on HFD; about 250 U once a week, 8 weeks"}, "[7]": {"conditions": "DIO C57BL/6J male mouse on HFD, 50 U i.p. once a week, 2 weeks, n=1"}, "[8]": {"conditions": "DIO C57BL/6J male mice on HFD, about 250 U i.p. once a week, 8 weeks"}},
  "data": [
    {"molecule": "ADI-ABD: arginine deiminase fused with albumin binding domain (SEQ ID NO: 107) (protein, ADI-ABD, Synthesized in the Lab) MHHHHHHDEAVDANSLAEAKVLANRELDKYGVSDYYKNLINNAKTVEGVKALIDEILAALPSGSNNNNNNGSGGSVFDSKFKGIHVYSEIGELESVLVHEPGREIDYITPARLDELLFSAILESHDARKEHKQFVAELKANDINVVELIDLVAETYDLASQEAKDKLIEEFLEDSEPVLSEEHKVVVRNFLKAKKTSRELVEIMMAGITKYDLGIEADHELIVDPMPNLYFTRDPFASVGNGVTIHYMRYKVRQRETLFSRFVFSNHPKLINTPWYYDPSLKLSIEGGDVFIYNNDTLVVGVSERTDLQTVTLLAKNIVANKECEFKRIVAINVPKWTNLMHLDTWLTMLDKDKFLYSPIANDVFKFWDYDLVNGGAEPQPVENGLPLEGLLQSIINKKPVLIPIAGEGASQMEIERETHFDGTNYLAIRPGVVIGYSRNEKTNAALEAAGIKVLPFHGNQLSLGMGNARCMSMPLSRKDVKW", "values": [
      {"measurement": "Bodyweight reached under treatment", "setting": "[1]; DIO C57BL/6J male mouse on HFD, 5 U i.p., first cycle, from 47 g in 2 days, n=1", "result": "about 44 g"},
      {"measurement": "Time of minimum level of food intake in the cycle", "setting": "[2]; DIO C57BL/6J male mice on HFD, i.p. once a week", "result": "after the first day"},
      {"measurement": "Pattern of food intake (intermittent fasting cycle)", "setting": "[2]; DIO C57BL/6J male mouse on HFD, 5 U i.p. once a week, 2 weeks, n=1", "result": "induce a 7-day intermittent fasting cycle"}
    ]},
    {"molecule": "N-ABD094-rhArg-Co^2+: SEQ ID NO: 50 (cobalt substituted); Mn^2+ substituted with Co^2+ in the ABD-rhArg fusion protein (protein, Co2+ substituted for Mn2+; N-ABD094-rhArg, Synthesized in the Lab, Mn^2+ substituted with Co^2+ in the ABD-rhArg fusion protein) MHHHHHHDEAVDANSLAEAKEAANAELDSYGVSDFYKRLIDKAKTVEGVEALKDAILAALPSGSNNNNNNGSGGMSAKSRTIGIIGAPFSKGQPRGGVEEGPTVLRKAGLLEKLKEQECDVKDYGDLPFADIPNDSPFQIVKNPRSVGKASEQLAGKVAEVKKNGRISLVLGGDHSLAIGSISGHARVHPDLGVIWVDAHTDINTPLTTTSGNLHGQPVSFLLKELKGKIPDVPGFSWVTPCISAKDIVYIGLRDVDPGEHYILKTLGIKYFSMTEVDRLGIGKVMEETLSYLLGRKKRPIHLSFDVDGLDPSFTPATGTPVVGGLTYREGLYITEEIYKTGLLSGLDIMEVNPSLGKTPEEVTRTVNTAVAITLACFGLAREGNHKPIDYLNPPK", "values": [
      {"measurement": "Bodyweight reached under treatment", "setting": "[1]; DIO C57BL/6J male mouse on HFD, 50 U i.p. once a week, from 45 g within 2 weeks, n=1", "result": 32, "unit": "g"},
      {"measurement": "Length of fasting period in the 7-day intermittent fasting cycle", "setting": "[2]; [7]", "result": 4, "unit": "days"},
      {"measurement": "Pattern of food intake (intermittent fasting cycle)", "setting": "[2]; [7]", "result": "induce a 7-day intermittent fasting cycle"}
    ]},
    {"molecule": "BHA: arginase-ABD fusion protein, SEQ ID NO: 75 (protein, BHA Fusion Protein, Synthesized in the Lab) MKPISIIGVPMDLGQTRRGPDMGPSAMRYAGVIERLERLHYDIEDLGDIPIGKAERLHEQGDSRLRNLKAVAEANEKLAAAVDQVVQRGRFPLVLGGDHSIAIGTLAGVAKHYERLGVIWYDAHGDVNTAETSPSGNIHGMPLAASLGFGHPALTQIGGYCPKIKPEHVVLIGVRSLDEGEKKFIREKGIKIYTMHEVDRLGMTRVMEETIAYLKERTDGVHLSLDLDGLDPSDAPGVGTPVIGGLTYRESHLAMEMLAEAQIITSAEFVEVNPILDERNKTASVAVALMGSLFGEKLMHHHHHHAQHDEAVDANSLAEAKVLANRELDKYGVSDYYKNLINNAKTVEGVKALIDEILAALP", "values": [
      {"measurement": "Therapeutic duration (and half-life)", "setting": "[3]", "result": "surprisingly high therapeutic duration (and half-life)"}
    ]},
    {"molecule": "BAH: arginase-ABD fusion protein, SEQ ID NO: 76 (protein, BAH Fusion Protein, Synthesized in the Lab) MKPISIIGVPMDLGQTRRGPDMGPSAMRYAGVIERLERLHYDIEDLGDIPIGKAERLHEQGDSRLRNLKAVAEANEKLAAAVDQVVQRGRFPLVLGGDHSIAIGTLAGVAKHYERLGVIWYDAHGDVNTAETSPSGNIHGMPLAASLGFGHPALTQIGGYCPKIKPEHVVLIGVRSLDEGEKKFIREKGIKIYTMHEVDRLGMTRVMEETIAYLKERTDGVHLSLDLDGLDPSDAPGVGTPVIGGLTYRESHLAMEMLAEAQIITSAEFVEVNPILDERNKTASVAVALMGSLFGEKLMAQHDEAVDANSLAEAKVLANRELDKYGVSDYYKNLINNAKTVEGVKALIDEILAALPHHHHHH", "values": [
      {"measurement": "Therapeutic duration (and half-life)", "setting": "[3]", "result": "surprisingly high therapeutic duration (and half-life)"}
    ]},
    {"molecule": "PEGylated His-rhArg: PEGylated His-tagged recombinant human arginase (SEQ ID NO: 101) (protein, PEGylated; His-rhArg, Synthesized in Lab) MHHHHHHMSAKSRTIGIIGAPFSKGQPRGGVEEGPTVLRKAGLLEKLKEQECDVKDYGDLPFADIPNDSPFQIVKNPRSVGKASEQLAGKVAEVKKNGRISLVLGGDHSLAIGSISGHARVHPDLGVIWVDAHTDINTPLTTTSGNLHGQPVSFLLKELKGKIPDVPGFSWVTPCISAKDIVYIGLRDVDPGEHYILKTLGIKYFSMTEVDRLGIGKVMEETLSYLLGRKKRPIHLSFDVDGLDPSFTPATGTPVVGGLTYREGLYITEEIYKTGLLSGLDIMEVNPSLGKTPEEVTRTVNTAVAITLACFGLAREGNHKPIDYLNPPK", "values": [
      {"measurement": "Bodyweight reached under treatment", "setting": "[1]; DIO C57BL/6J male mice on HFD, about 250 U i.p. once a week, from 50 g within 8 weeks", "result": 30, "unit": "g"},
      {"measurement": "Insulin sensitivity in ITT", "setting": "[4]", "result": "marked increase in insulin sensitivity"},
      {"measurement": "Glucose tolerance in GTT", "setting": "[5]", "result": "significantly improved glucose tolerance"},
      {"measurement": "Pattern of food intake (intermittent fasting cycles)", "setting": "[2]; [8]", "result": "repetitive 7-day intermittent fasting cycles"},
      {"measurement": "Total food intake per week, less than HFD (vehicle) group", "setting": "[2]; [8]", "result": "about 28%"},
      {"measurement": "Fat pad mass (perirenal, inguinal WAT, interscapular BAT) and liver mass", "setting": "[6]", "result": "dramatically reduced to a weight similar to that of the vehicle-treated lean control mice"},
      {"measurement": "Kidney and heart mass", "setting": "[6]", "result": "significantly reduced"}
    ]}
  ]
}
